# Data reported in patent US8951758B2, “GH61 glycoside hydrolase protein variants and cofactors that enhance GH61 activity” (Codexis, Inc., priority 2011, dated 2015).
# Changes are numbered by the printed parent chain. Names may count otherwise.
# B1: GH61a: Wild-type M. thermophila C1 GH61a polypeptide (SEQ ID NO:2) (protein, listed as Myceliophthora thermophila)
# chain: MSKASALLAGLTGAALVAAHGHVSHIVVNGVYYRNYDPTTDWYQPNPPTVIGWTAADQDNGFVEPNSFGTPDIICHKSATPGGGHATVAAGDKINIVWTPEWPESHIGPVIDYLAACNGDCETVDKSSLRWFKIDGAGYDKAAGRWAADALRANGNSWLVQIPSDLKAGNYVLRHEIIALHGAQSPNGAQAYPQCINLRVTGGGSNLPSGVAGTSLYKATDPGILFNPYVSSPDYTVPGPALIAGAASSIAQSTSVATATGTATVPGGGGANPTATTTAATSAAPSTTLRTTTTSAAQTTAPPSGDVQTKYGQCGGNGWTGPTVCAPGSSCSVLNEWYSQCL
# B2: E104H/K167A (protein)
# chain: B1 chain with E104H, K167A
# Assays:
# [1] = tested on: pre-treated wheat straw; assay: Biomass assay of a cellulase mixture (GH61a, CBH1a, CBH2b, BGL) with surfactants (FIG. 6); assay type: biochemical; details: BGL at 0.3%, 0.15%, 0.08%, 55° C., 72 hours, pH 5
# Description: This example illustrates the enhancement of overall saccharification yield with the addition of surfactants such as TWEEN®-20 and PEG-4000. Experiments were designed to monitor the enhancement in cellulase activity with different concentrations of TWEEN®-20 or PEG-4000 in the biomass assay. The biomass assay was performed in a total volume of 90 μL, including 10 mg of pre-treated wheat straw, 64.8 μL (72% by volume) of filtrate (or H2O for no filtrate conditions), and 11.6 μl, of a mixture of sodium acetate buffer (pH 5.0, supplemented with CuSO4), M. thermophila-produced cellobiohydrolase 1a (CBH1a), cellobiohydrolase 2b (CBH2b), beta-glucosidase (BGL), and glycoside hydrolase type 61 (GH61a). The final concentration of sodium acetate was 128 mM (with 30 μM CuSO4) and the enzyme loads of CBH1a, CBH2b, BGL and GH61a were 0.15%, 0.15%, 0.08% and 0.3% with respect to the substrate glucan mass in the biomass substrate, respectively. Water was used in place of the enzymes as a negative control. […]
# Data shown are total glucose produced by a mixture of GH61a, CBH1a, CBH2b, and BGL at 0.3%, 0.15%, 0.15%, and 0.08% with respect to the substrate glucan mass in the biomass substrate, respectively. In this Figure, TWEEN®-20 concentrations are expressed as % total reaction volume.
# In this Figure, PEG-4000 concentrations are expressed as % total reaction volume.
# [2] = tested on: AVICEL® PH microcrystalline cellulose; assay: GH61a Variant 1 plus beta-glucosidase with reducing agents or pretreatment filtrate on AVICEL (FIG. 5A); assay type: biochemical; details: 0.3% GH61a Variant 1, 0.08% BGL, 30 μM CuSO4, 48 h, pH 5, 55° C.
# Description: (§1) This Example provides experiments conducted to determine the effect of adding reducing agents (e.g., gallic acid and ascorbic acid) to saccharification reactions. In these experiments, enhancement of GH61 activity was tested using Variant 1 (SEQ ID NO:5) in the presence of reducing agents (specifically, ascorbic acid or gallic acid) and pretreatment filtrate, which contains various reducing agents from lignin degradation. Reactions were performed on cellulosic substrates, AVICEL® PH microcrystalline cellulose and phosphoric acid swollen cellulose (PASC), with purified M. thermophila-produced GH61 Variant 1 and beta-glucosidase at 0.3% and 0.08% respectively, with respect to substrate glucan mass, and 128 mM sodium acetate buffer (pH 5) supplemented with 30 μM CuSO4. Thus, reactions were performed with 0.3% GH61a and 0.08% BGL, where % enzyme loads are with respect to substrate glucan mass (36 g/L AVICEL® cellulose and 5 g/L PASC). Background (negative) controls were beta-glucosidase-only reactions tested in the absence of GH61a. Glucose production after 48 h incubation at pH 5, 55° C. was determined by glucose oxidase/peroxidase-based or HPLC-based glucose assay glucose assay, using methods known in the art. […] Filtrate dilutions are indicated in this Figure, where undiluted filtrate equals 72% of the total reaction volume. […]
# [3] = tested on: phosphoric acid swollen cellulose (PASC); assay: GH61a Variant 1 plus beta-glucosidase with reducing agents or pretreatment filtrate on PASC (FIG. 5B); assay type: biochemical; details: 0.3% GH61a Variant 1, 0.08% BGL, 30 μM CuSO4, 48 h, pH 5, 55° C.
# Description: as §1
# [4] = tested on: M. thermophila CF-416 whole broth cellulases; details: 87g/kg glucan, 0.81% enzyme load, pH 5.0, 55° C., 50 μM CuSO4, 72 hours
# [5] = tested on: acid-pretreated corn stover; assay: Shake flask saccharification with CF-416 whole broth enzymes with 0 or 50 μM CuSO4 at pH 5.0 or pH 6.0 (FIG. 4); assay type: biochemical; details: 50 μM vs 0 CuSO4; for increase in glucose yields: CF-416 whole broth enzymes 0.81%, 72 hours, 55° C.
# Description: This Example describes experiments designed to determine the effects of added copper in saccharification reactions. The saccharification reactions were run in 30g shake flasks (250 mL flasks) using 82g/kg glucan of acid-pretreated corn stover and whole broth enzymes produced by M. thermophila strain CF-416 (produced using standard methods known in the art) at a 0.81% total enzyme load with respect to glucan. […] A pH trim was also performed using 2M NaOH at time intervals of 1, 4, 7, 22, 24 29, 46, 52, 70, 75 and 96 hrs, to maintain the pH at the desired value of pH 5.0 or pH 6.0. Samples were removed at 72 hours and the total amount of glucose in the reaction mixture was determined using standard HPLC methods and equipment as known in the art.
# [6] = tested on: crystalline cellulose; assay: Saccharification of crystalline cellulose by cellulase enzymes in culture broth from M. thermophila cells with GH61a added (FIG. 1); assay type: biochemical; details: GH61a added to cellulases of M. thermophila culture broth
# Description: FIG. 1 provides results of an experiment using recombinantly produced GH61a protein having the sequence shown in SEQ ID NO:2. The protein was tested for its ability to promote the activity of cellulases present in culture broth of M. thermophila.
# A protein from a strain of M. thermophila having the amino acid sequence provided in SEQ ID NO:2 was previously identified as having GH61 activity. It was designated “GH61a”.
# [7] = tested on: pretreated corn stover (PCS); assay: Supplementation of CF-416 whole cellulase broth with single purified enzymes, saccharification of pretreated corn stover; assay type: biochemical; details: 0.4% single enzyme added to 0.5% CF-416 whole cellulase broth base; 74 g/L glucan, pH 5.0, 55° C., 50 μM copper
# Description: (§2) In this Example, M. thermophila-produced and purified GH61a, GH61p, GH61f, GH61n, CBH1a, CBH2b, AXE3, FAE, and Xyl3, were used to supplement the activity present in culture broths (i.e., “whole broth cellulase base”) of the M. thermophila strain CF-416 prepared using standard methods known in the art. The broth cellulase base was fixed to 0.5% protein and the single purified enzyme was added at 0.4% (wt added protein/wt glucan) to the saccharification reactions. The whole cellulase broth base and individual enzymes were characterized by standard BCA assays for total protein quantification.
# (§3) The saccharification reactions were carried out at 74 g/L glucan load of pretreated wheat straw (PWS) or pretreated corn stover (PCS) at pH 5.0, 55° C. at 950 rpm in the presence of 50 μM copper in high throughput (HTP) 96 deep well plates. Glucose analysis was carried out by the glucose oxidase assay as described above. In each case, the fold improvement was calculated using the formula Fold Improvement=[Total Glucose Production with addition of 0.4% single enzyme to the whole cellulase broth base]/[glucose production from the 0.5% whole cellulase broth base]. In this Table, the fold improvements were ranked from 0 to 3; fold improvements less than 1.2× are indicated by “0,” fold improvements of >1.2 to <1.5 are indicated by “1,” fold improvements of ≧1.5× to <1.7× improvements are indicated by “2,” and fold improvements ≧1.7 are indicated by “3.”
# [8] = tested on: pretreated wheat straw (PWS); assay: Supplementation of CF-416 whole cellulase broth with single purified enzymes, saccharification of pretreated wheat straw; assay type: biochemical; details: 0.4% single enzyme added to 0.5% CF-416 whole cellulase broth base
# Description: as §2, §3
# [9] = tested on: pre-treated wheat straw; assay: Biomass assay of GH61a pre-incubated with or supplemented by copper(II) (FIG. 3); assay type: biochemical; details: pre-incubated with copper(II) (CuSO4) 0 to 100 μM, 72 h, pH 5, 55° C.
# Description: Purified M. thermophila-produced GH61a or S. cerevisiae supernatant containing M. thermophila-GH61a was pre-incubated with different amounts of copper(II) (CuSO4) at concentrations of 0 to 100 μM at ambient temperature for 30 min. The biomass assay was then performed in a total volume of 300 μL, in the presence of 10 mg of pre-treated wheat straw, using 261 μL of copper-treated GH61 samples, 39 μL of sodium acetate buffer (pH 5), M. thermophila-produced CBH1a, CBH2b and β-glucosidase. The final concentration of sodium acetate was 120 mM and the enzyme loads of CBHs and β-glucosidase (CBH1a and CBH2b in 1:1 ratio) were 0.01% and 0.02% with respect to substrate glucan mass in the biomass substrate, respectively. Background (negative) controls were obtained by using either water or media supernatant from cultures of S. cerevisiae cells without the GH61a gene in the plasmid. Thus, the negative controls represent activities of CBH1a, CBH2b and beta-glucosidase in the absence of GH61a. The reaction was incubated at 55° C. for 72 hours with shaking.
# Some experiments were also performed without pre-incubating GH61 with copper(II), but instead, by directly adding different amounts of copper(II) (CuSO4) to the biomass assay reactions as described herein.
# Biomass assays were performed with (A) S. cerevisiae-produced M. thermophila GH61a Variant 5, and (B) M. thermophila-produced wild-type GH61a. Glucose production after 72 h incubation at pH 5, 55° C. was determined by the glucose assay. The data in this Figure indicate GH61a-only activity, in which the amount of glucose produced in control reaction containing CBH and β-glucosidase was subtracted from the total amount of glucose produced in the reactions with GH61a. In this Figure, N=4; and the error bars represent ±1 standard deviation. Copper concentrations shown are with respect to the total reaction volume.
molecule,measurement,setting,value
TWEEN®-20,total glucose production in the saccharification reaction,[1],enhanced
O=C(O)c1cc(O)c(O)c(O)c1 [gallic acid],GH61 activity in generating soluble sugars from AVICEL® cellulose,[2],improved
same,GH61 activity in generating soluble sugars from PASC,[3],improved
O=O [oxygen],"glucose yields, closed flask vs flask opened at 4 hrs and 24 hrs for fresh air",[4],not a limiting factor
"O=S(=O)([O-])[O-].[Cu+2] [copper(II), CuSO4]",total amounts of C5 sugars produced,"[5]; FIG. 4, Panel B",may cause a decrease
same,increase in glucose yields,[5]; saccharification pH 5.0,~3.5%
same,increase in glucose yields,[5]; saccharification pH 6.0,not observed
B1,glucose yield,[6],improvement in glucose yield
same,Fold Improvement Over Whole Cellulase Broth Tested on PCS,[7],2 (fold improvements of ≧1.5× to <1.7×)
same,"improvement over whole cellulase broth on PWS, in words",[8],greatest benefit
same,Fold Improvement Over Whole Cellulase Broth Tested on PWS,"[8]; 74 g/L glucan, pH 5.0, 55° C., 50 μM copper",3 (fold improvements ≧1.7)
same,GH61a-only activity (glucose production) when Cu^++ is included in the reaction,[9]; listed as M. thermophila-produced GH61a,improved
same,GH61a-only activity (glucose production) when Cu^++ is included in the reaction,[9]; listed as wild-type GH61a,increase
B2,GH61a-only activity (glucose production) when Cu^++ is included in the reaction,[9],increase
same,GH61a-only activity (glucose production) when Cu^++ is included in the reaction,[9]; listed as S. cerevisiae supernatant containing M. thermophila-GH61a,improved
